Laboratory results: patent US20230407276, “CRISPR-CAS EFFECTOR POLYPEPTIDES AND METHODS OF USE THEREOF” (The Regents of the University of California, published 2023)

What was measured:
[1] = test system: DpbCasX dH2 Helical-II domain deleted; test: cleavage_in_vitro; settings: NTS; 37 C, Mg2+; TS value 0.008223; unit assumed
[2] = test system: PlmCasX dH2 Helical-II domain deleted; test: cleavage_in_vitro; settings: NTS; 37 C, Mg2+; TS value 1.741e-5; unit assumed
[3] = target: T1, DpbCasX (DpbCasXv1); test: cleavage_in_vitro; NTS; 37 C, Mg2+; settings: label: 5'-32P
T1 chain: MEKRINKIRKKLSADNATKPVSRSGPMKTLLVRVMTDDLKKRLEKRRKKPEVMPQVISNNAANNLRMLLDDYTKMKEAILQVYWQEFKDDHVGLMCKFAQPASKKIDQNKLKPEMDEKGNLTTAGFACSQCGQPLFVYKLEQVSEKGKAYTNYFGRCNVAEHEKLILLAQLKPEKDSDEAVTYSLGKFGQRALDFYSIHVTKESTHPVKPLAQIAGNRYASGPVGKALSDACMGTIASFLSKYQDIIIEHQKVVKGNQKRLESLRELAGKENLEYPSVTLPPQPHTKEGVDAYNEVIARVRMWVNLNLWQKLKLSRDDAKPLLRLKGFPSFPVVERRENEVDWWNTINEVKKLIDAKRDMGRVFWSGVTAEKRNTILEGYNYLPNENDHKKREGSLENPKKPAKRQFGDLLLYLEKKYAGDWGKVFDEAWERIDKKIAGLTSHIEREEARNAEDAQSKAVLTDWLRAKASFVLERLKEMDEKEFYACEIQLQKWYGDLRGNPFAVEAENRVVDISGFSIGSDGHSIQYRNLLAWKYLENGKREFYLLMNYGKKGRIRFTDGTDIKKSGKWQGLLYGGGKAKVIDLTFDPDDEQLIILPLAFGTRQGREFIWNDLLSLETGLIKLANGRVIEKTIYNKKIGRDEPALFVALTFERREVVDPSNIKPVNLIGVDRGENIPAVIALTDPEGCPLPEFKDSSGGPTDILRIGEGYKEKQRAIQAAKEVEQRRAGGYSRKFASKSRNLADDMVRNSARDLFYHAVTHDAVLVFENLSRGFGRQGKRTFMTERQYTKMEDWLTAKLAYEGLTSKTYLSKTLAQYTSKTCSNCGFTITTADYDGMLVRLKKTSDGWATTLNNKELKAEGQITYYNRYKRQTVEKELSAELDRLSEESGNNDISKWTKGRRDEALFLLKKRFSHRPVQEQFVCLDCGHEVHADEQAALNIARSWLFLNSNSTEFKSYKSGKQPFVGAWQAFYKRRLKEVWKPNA
Source text: (§1) FIG. 14A-14G. Updated design of the CasX sgRNA. […] The coverage axis denotes the number of sequencing reads. The abscissa denotes the genome sequence of the hypothetical tracrRNA region. (B) The structural details for sgRNAv1. The additional U at the 5′ end was hypothetically modeled in the top panel. The structural details of the G30-C54 base-paring region in sgRNAv1 are also shown in the bottom panel. […] The sgRNAv1-2 architecture is modeled based on sgRNAv1. The potential base-pairing between the additional 5′ U and A29 is labeled with a dashed line. The Helical-II domain was modeled to indicate the interaction interface with the sgRNA scaffold stem. (D) In vitro dsDNA cleavage activity comparison among different sgRNAs by DpbCasX and PlmCasX. The NTS was ³²P labeled on the 5′ end. (E) Cleavage kinetics analysis was based on the NTS band density from the cleaved fractions compared to the input NTS band density at the reaction time of 0 min (n=3, mean±s.d.) (DpbCasX-v2 from FIG. 15A). The fractions were collected from 0 min to 6 hrs. […] (F) The hypothetical secondary architectures of sgRNAv2 designs. […] The fractions were collected at 0 min, 10 mins, 20 mins, 40 mins, 1 hr, 2 hrs, 4 hrs and 6 hrs, respectively. OC/N indicates the open-circle or nicked plasmids, L indicates the linearized plasmids and SC indicates the super-coiled plasmids (n=3, representative gel shown).

[4] = target: T2, PlmCasX (PlmCasXv1); test: cleavage_in_vitro; NTS; 37 C, Mg2+; settings: label: 5'-32P
T2 chain: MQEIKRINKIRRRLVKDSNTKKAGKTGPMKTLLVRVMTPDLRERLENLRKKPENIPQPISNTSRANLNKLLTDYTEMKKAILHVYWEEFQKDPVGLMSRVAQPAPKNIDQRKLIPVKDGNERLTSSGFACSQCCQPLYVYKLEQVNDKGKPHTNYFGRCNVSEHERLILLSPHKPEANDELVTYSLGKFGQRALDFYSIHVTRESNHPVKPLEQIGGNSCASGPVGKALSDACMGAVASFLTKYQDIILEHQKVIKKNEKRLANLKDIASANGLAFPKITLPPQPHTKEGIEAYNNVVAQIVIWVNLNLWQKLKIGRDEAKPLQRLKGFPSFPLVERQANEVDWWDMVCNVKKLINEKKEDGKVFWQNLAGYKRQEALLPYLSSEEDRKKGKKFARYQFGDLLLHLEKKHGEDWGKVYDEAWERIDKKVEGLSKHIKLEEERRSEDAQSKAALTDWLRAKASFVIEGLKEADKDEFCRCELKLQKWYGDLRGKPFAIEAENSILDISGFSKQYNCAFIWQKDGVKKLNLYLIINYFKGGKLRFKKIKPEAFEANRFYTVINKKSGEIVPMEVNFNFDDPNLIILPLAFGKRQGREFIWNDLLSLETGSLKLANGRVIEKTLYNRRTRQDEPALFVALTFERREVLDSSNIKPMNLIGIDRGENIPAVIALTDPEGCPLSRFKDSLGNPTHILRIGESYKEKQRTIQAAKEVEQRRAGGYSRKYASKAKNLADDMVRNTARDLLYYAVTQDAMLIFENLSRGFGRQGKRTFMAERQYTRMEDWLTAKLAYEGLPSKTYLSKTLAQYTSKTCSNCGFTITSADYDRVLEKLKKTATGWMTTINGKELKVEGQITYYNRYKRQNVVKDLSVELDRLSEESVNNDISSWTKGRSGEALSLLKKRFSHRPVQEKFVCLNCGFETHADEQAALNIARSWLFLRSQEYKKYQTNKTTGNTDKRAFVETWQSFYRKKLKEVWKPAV
Source text: as §1

Molecule: GGCGCGUUUAUUCCAUUACUUUGGAGCCAGUCCCAGCGACUAUGUCGUAUGGACGAAGCGCUUAUUUAUCGGAGAGAAACCGAUAAGUAAAACGCAUCAAAGUCCUGCAGCAGAAAAUCAAA / ATCGTTATACTTTGATTTTCTGCTGCAGGATGAAATCCCG / CGGGATTTCATCCTGCAGCAGAAAATCAAAGTATAACGAT [sgRNAv1 ; dsDNA target 40 bp]
- activity [1]: 0.00671 min⁻¹
- activity [2]: 0.00268 min⁻¹

B1: sgRNAv1-2 ; dsDNA target 40 bp (ssRNA ; dsDNA)
RNA: UGGCGCGUUUAUUCCAUUACUUUGGAGCCAGUCCCAGCGACUAUGUCGUAUGGACGAAGCGCUUAUUUAUCGGAGAGAAACCGAUAAGUAAAACGCAUCAAAGUCCUGCAGCAGAAAAUCAAAG
DNA 1: ATCGTTATACTTTGATTTTCTGCTGCAGGATGAAATCCCG
DNA 2: CGGGATTTCATCCTGCAGCAGAAAATCAAAGTATAACGAT
- activity [3]: 0.0109 k (unit not stated; min-1 inferred)

B2: sgRNAv2-2 ; dsDNA target 40 bp (ssRNA ; dsDNA)
RNA: UGGCGCUUUUAUCUCAUUACUUUGAGAGCCAUCACCAGCGACUAUGUCGUAUGGGUAAAGCGCUUAUUUAUCGGAGAAACCGAUAAAUAAGAAGCAUCAAAGUCCUGCAGCAGAAAAUCAAAG
DNA 1: B1 DNA 1
DNA 2: B1 DNA 2
- activity [4]: 0.00919 k (unit not stated; min-1 inferred)

B3: sgRNAv2-3 ; dsDNA target 40 bp (ssRNA ; dsDNA)
RNA: UACUGGCGCUUUUAUCUCAUUACUUUGAGAGCCAUCACCAGCGACUAUGUCGUAUGGGUAAAGCGCUUAUUUAUCGGAGAAACCGAUAAAUAAGAAGCAUCAAAGUCCUGCAGCAGAAAAUCAAAG
DNA 1: B1 DNA 1
DNA 2: B1 DNA 2
- activity [4]: 0.0217 k (unit not stated; min-1 inferred)
